Source: the DeepSol protein solubility set

Test: soluble on expression in E. coli; label from the status in PepcDB or PDB records

Sequence | soluble on expression in E. coli
MTMHREPGGERYYYTWAWFEGPDDAAWRVTGHHTDSGEQYRLDWNLAERSLCVTDSLGRTRCHWWDAQGLVTAYRDEAGQMTTFRWSDEERLLLGMTDAQGGKWRYVYDRLGHLTETHDPLGRVEQTQWHPVWHQPETEVDAAGAAWRYEYDERGNLQAVSDPLHQRTVYGYDRHGQVVRITDARGGDKYLQWNEDGQLMRHTDCSGSQTAWFYDERTRLERVTDAESNSTRYSYDGNGHLTEVMFADGRTERYQPDAAGRLVKYTSPAGQITRWQRDGQGRVRRQTDATGRRTAYEYDAYGRLTTLTNENGESYRFRYDVLDRLTEQTDPGGSRRAYGYNALNAVTAVIYGGERGGEIRHGLERDAAGRLTAKTTPETRTEYRYDAADRLLEIRRRRHDAAEGGEPEVIRFSYDSAGNLLSEETAQGVLQHRYDVQGNRTETQMPDGRTLRYLYYGSGHLQQINLGRDVISEFTRDHLHREVQRSQGRLDTRRMYDRTGRLTRKPTCKGMRGVVPETFIDREYAYSGQDELLKKRHSRQGVTDYFYDTTGRITACRNEAYLDSWQYDAAANLLDRRQGETAQAGAGSVVPFNRITSYRGLHYRYDEYGRVVEKRGRNGTQHYRWDAEHRLTEVAVIRGSTVRRYGYVYDAPGRRVEKHELDAEGKPYNRTTFLWDGMRLAQECRLGRSSSLYIYSDQGSHEPLARVDRAAPGEADEVLYYHTDVNGAPEEMTDGRGNIVWEAGYQVWGNLTHEKETRPVQQNLRFQGQYLDRETGLHYNLYRFYDPDIGKFISGDPISIRGGINLYQYAPNPIKWIDPLGLYNGEGQRELGKYHVFHEHNLDITEYGLSDAEHFSRGNQAIYERMKNDPAFRREMQTKYPGVVEHVQPSSGGKFSTESPPGLTWHHENKPGVLSLVDRLDHKTYLEHHHHHH | not soluble
MANSAGSMADNSKTRVVVGMSGGVDSSVTALLLKEQGYDVIGIFMKNWDDTDENGVCTATEDYKDVAKVADQIGIPYYSVNFEKEYWDRVFEYFLAEYRLGRTPNPDVMCNKEIKFKAFLDYAMQLGADYVATGHYAQVETDENGVVHMLRGIDNNKDQTYFLSQLSQAQLAKTMFPLGGMEKSEVRAIAERAGLATAKKKDSTGVCFIGEKNFKEFLSNYLPAKKGNMVTEDGEIKGQHDGLMYYTIGQRQGLGIGGGGKTQEPWFVIGKDLTTNTLYVGQGFHHEKLYATHLEASEVHFTVDTPMPKEFDCTAKFRYRQADIPVHVSLSEDGTKATVTFKEPARAVTPGQAVVFYDGMECLGGGLIDRAYQDEKELQYVLEHHHHHH | not soluble
MATRADEDGDTPLHIAVVQGNLPAVHRLVNLFQQGGRELDIYNNLRQTPLHLAVITTLPSVVRLLVTAGASPMALDRHGQTAAHLACEHRSPTCLRALLDSAAPGTLDLEARNYDGLTALHVAVNTECQETVQLLLERGADIDAVDIKSGRSPLIHAVENNSLSMVQLLLQHGANVNAQMYSGSSALHSASGRGLLPLVRTLVRSGADSSLKNCHNDTPLMVARSRRVIDILRGKATRPAS | soluble
SPNSMSALKAVFQYIDENQDRYVKKLAEWVAIQSVSAWPEKRGEIRRMMEVAAADVQRLGGSVELVDIGKQKLPDGSEIPLPPILLGKLGSDPQKKTVCIYGHLDVQPAALEDGWDSEPFTLVEREGKLYGRGSTDDKGPVAGWMNALEAYQKTGQEIPVNLRFCLEGMEESGSEGLDELIFAQKDKFFKDVDYVCISDNYWLGKNKPCITYGLRGICYFFIEVECSDKDLHSGVYGGSVHEAMTDLISLMGCLVDKKGKILIPGINDAVAPVTDEEHALYDHIDFDMEEFAKDVGAETLLHSCKKDILMHRWRYPSLSLHGIEGAFSGSGAKTVIPRKVVGKFSIRLVPDMIPEVVSEQVSSYLSKKFAELQSPNKFKVYMGHGGKPWVSDFNHPHYQAGRRALKTVFGVEPDLTREGGSIPVTLTFQEATGKNVMLLPVGSADDGAHSQNEKLNRLNYIEGTKMLAAYLYEVSQLKN | soluble
MVMAAVIHKKGGPDNFVWEEVKVGSPGPGQVRLRNTAIGVNFLDTYHRAGIPHPLVVGEPPIVVGFEAAAVVEEVGPGVTDFTVGERVCTCLPPLGAYSQERLYPAEKLIKVPKDLDLDDVHLAGLMLKGMTAQYLLHQTHKVKPGDYVLIHAAAGGMGHIMVPWARHLGATVIGTVSTEEKAETARKLGCHHTINYSTQDFAEVVREITGGKGVDVVYDSIGKDTLQKSLDCLRPRGMCAAYGHASGVADPIRVVEDLGVRGSLFITRPALWHYMSNRSEIDEGSKCLFDAVKAGVLHSSVAKTFPLREAAAAHKYMGGRQTIGSIVLLPQA | soluble
MGSDKIHHHHHHMTMIRVNDVLSVGPQPSISEIRSLAGHGFAGMINARPDGEEASQPGNAAEREAAGHADVPYTFIPVTMPTITEADVRAFQRAMADAGGPVFAHCKTGTRALTLYALGEALDGRMSSQDMAALGQKLGIDLSAASRWFEAHRQLRPDVKGFFDPRTGSVQYVVSDPDTRKCAIVDPVLDFDEKSGATTTRNADAMLSYIAENGLSVEWILDTHPHADHFSAAQYLKEKTGAPTAIGAPVVDVQRLWRGIYNWPELRVDGSQWDRLFSDGDTFKVGSMAARVMFSPGHTLASITYVIGNAAFVHDTIFMPDSGTARADFPGGDARVLWKSIQKILDLPDETRLFTGHDYQPGGRAPKWESTVGEQKRANAHLAGVNEEAFAGLRVARDRTLPMPKLILHALQVNIQAGRLPEPEPNGTRYLKFPLDALQGAVW | not soluble
MGSDKIHHHHHHMVQHLVDLLDTWLPSYQEDWVLAVLTQVEGSSYRKPGAIMLFHPMGKSLGMLSGGCLEADLRRHAQRAIQTQQVIQLTYDATDESDTSYQLGCGGIVNIMMVSLNKANNYLGLVSVHDALMRGDRGTYQLEIVADGVSSHQISGHFVEASSDAAPITLNTKTLKVTEQHKTLLQIPLRPPVHIGIFGGGLDAKPIAQMAQTMGWKVTIFDERTAYARTYDFPGCHIMKHPTPSISTDLLSGLDAAFIMSHNLQIDAKTLKTLQPLPLAYISLLGPVHRRDKVLDMAELSLKDFSGYFSAPAGLALGGELPGSVALSILSQCHGVLYNSKLTSLDSVML | not soluble
MGSDKIHHHHHHMASLLALDFDGVLCDGLREYFLAAWQAGCDRDPSWPEVPEPSLEDRFRLLRPVIEQGWEMPVLLQALRREVADAEVLADWPQLCDRVLKDWGLTTTELSQAMDRVRDRWIKRDRKEWLQLHHFYPGVAERLAQQTAPWVIISTKDGRFIAELLEQIPNLQPPLAIYGKEVGVPKTQTLIQLQVEFEQIAFVEDRLPALEAAAQLESVDLYLADWGYNTDRDRQQAMTSDRIQLLRLTDFSSGRSPALAASPVES | not soluble
MAHHHHHHMLPLDSPPVTQLAKEFVNFINEACTPFHAVEVLSSWLSNAGYQRLKEGETWPKLTNGYRYFITRNDSSLVAFSVGGRFVAENGLKIVGAHTDSPNLALKPRTLAGRSDYQGVAVQCYGGGLWHTWFDRDLTVAGRVIISSSKLVKRLVKVNKPIMRIPTLAIHLQSVEERNAFGPNKEKHLVPVIATTLSHTPNGDVSEHHNSQLLILLAESLGCRPSEIVDYDLSVVDTQDAVVGGANDEFIYAPRLDNLISCFCGVKALLESDKTLEEENMIRMVCLFDNEEVGSSTSQGAGGSLVPDVIEYISASGGLRAQLVANSFLMSVDGAHAVHPNYQDKHEEKHRPLIHRGPVIKYNANMRYATNGVTAAIVKAIAKRASVPIQEFCVKNDSPCGSTIGPILSSLSGIQTVDLGNPMLSMHSIREMCGTADLLHLKNLLEAFFNHYTRDMVTS | not soluble
SVIRELNKNWQSHAFDGFEVNWTEQQQMVSCLYTLGYPPAQAQGLHVTSISWNSTGSVVACAYGRLDHGDWSTLKSFVCAWNLDRRDLRPQQPSAVVEVPSAVLCLAFHPTQPSHVAGGLYSGEVLVWDLSRLEDPLLWRTGLTDDTHTDPVSQVVWLPEPGHSHRFQVLSVATDGKVLLWQGIGVGQLQLTEGFALVMQQLPRSTKLKKHPRGETEVGATAVAFSSFDPRLFILGTEGGFPLKCSLAAGEAALTRMPSSVPLRAPAQFTFSPHGGPIYSVSCSPFHRNLFLSAGTDGHVHLYSMLQAPPLTSLQLSLKYLFAVRWSPVRPLVFAAASGKGDVQLFDLQKSSQKPTVLIKQTQDESPVYCLEFNSQQTQLLAAGDAQGTVKVWQLSTEFTEQGPREAEDLDCLAAEVAA | soluble
MKVYLHFSPQFFANTYLIGNEITKEAVIIDPAKITEKMIHQIEKNEFNLKAVLLTHDLEHPYETGLNTILKIYSPKVYAGSCFSENVTINTLRGDGCIDVAGYSVRYFAIPAHSSYSYMFQIENMVFTGTSLSAGMIGQTSNMYAERTLRNILKTKLMCFEDNLIIMPFYGPPTSIGVERKYNASFFQDFEKKPFLEHHHHHH | soluble
